Results from paper PMC2885309.

Target: 47 aa syntaxin peptide corresponding to the SNARE interaction part of the syntaxin sequence (aa 201-248) (UniProt P32851)
Experiment: SPR; Biacore 2000, syntaxin peptide covalently immobilised on a CM5 chip; 0.13 mg/ml S-B in buffer B for 5 min; then washing or denaturing reagents 1 min each; 25°C

Sequence of S-B, fusion of brevin to the C-terminus of SNAP25 (chain): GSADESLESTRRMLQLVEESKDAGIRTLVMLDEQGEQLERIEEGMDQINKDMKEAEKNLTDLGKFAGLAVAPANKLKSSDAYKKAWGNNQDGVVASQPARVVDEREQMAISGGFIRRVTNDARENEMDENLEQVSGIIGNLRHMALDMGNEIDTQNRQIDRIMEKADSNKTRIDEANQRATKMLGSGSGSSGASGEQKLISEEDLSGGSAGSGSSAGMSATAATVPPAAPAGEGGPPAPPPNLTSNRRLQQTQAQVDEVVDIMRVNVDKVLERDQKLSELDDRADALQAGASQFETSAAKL

## S-B, fusion of brevin to the C-terminus of SNAP25
  percent of originally bound S-B resistant to the harsh treatments: < 50%
